Experimental data taken from paper PMC9223101, “Transcription Regulation of Cell Cycle Regulatory Genes Mediated by NtrX to Affect Sinorhizobium meliloti Cell Division”.

Biological target: T1, NtrX D53E (His-NtrXD53E) (Sinorhizobium meliloti 1021, UniProt Q92Q87 1-454, D53E)
T1 sequence: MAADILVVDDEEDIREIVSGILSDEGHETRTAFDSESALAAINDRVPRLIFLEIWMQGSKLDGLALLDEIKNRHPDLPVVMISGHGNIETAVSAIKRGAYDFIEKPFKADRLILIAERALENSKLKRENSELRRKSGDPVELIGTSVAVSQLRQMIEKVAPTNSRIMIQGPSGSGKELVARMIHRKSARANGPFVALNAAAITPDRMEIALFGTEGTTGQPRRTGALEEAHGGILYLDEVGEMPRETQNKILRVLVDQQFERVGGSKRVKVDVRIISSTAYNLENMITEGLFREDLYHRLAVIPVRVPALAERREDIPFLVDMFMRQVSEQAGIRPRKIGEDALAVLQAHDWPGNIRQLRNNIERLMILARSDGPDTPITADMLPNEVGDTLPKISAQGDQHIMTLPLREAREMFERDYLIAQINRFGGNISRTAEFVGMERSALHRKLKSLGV
Experiment: EMSA; 5 mM Mg2+; almost no complex; EMSA, 20 uL: 3, 6, 15 ng NtrX, 2 nM probe (2 or 40 nM in Methods), 1x binding buffer, 5 mM MgCl2, 50 ng/uL poly(dI-dC), 0.05% NP-40, 1% glycerol, 30 min at 28 C; pH and salt of binding buffer not stated (phosphorylation in 50 mM Tris-HCl pH 7.6, 50 mM KCl, 20 mM MgCl2 nominal 1x)
Conditions: protein: recombinant; tags: His (pET28b); chain copies: 2; label: biotin; blunt

B1: ntrY promoter probe (dsDNA)
DNA 1: GCGCTTGACTGAGATGCAACACCGTTGCATTTTCGCCACAATGCGTTGCTTGAACCTCGCATAAGCGTCGATTCGCCGGC
DNA 2: GCCGGCGAATCGACGCTTATGCGAGGTTCAAGCAACGCATTGTGGCGAAAATGCAACGGTGTTGCATCTCAGTCAAGCGC
binding result: no binding
